Results as given in the DeepSol protein solubility set.

experiment: soluble on expression in E. coli; label from the status in PepcDB or PDB records

**Q.** Which “soluble on expression in E. coli” value does the source give for “MGSDKIHHHHHHDEIDTLVSKSDNAITFGTYVGKQTKALDKSAFAKDDKFGVSAYYGDGTFEANFMSNETISTTDGSTWTYTNTKYWPEGNPVSFVAYYPNLTTAPTITDGATAIPFTVKNDATEQVDFMWSTVKAATKDDKNGTAINGITNTTTDATSVPFVFQHGLSKISFKAKLGEASYSGVTIKVKSIKINGVKNKGTFTIPADLTAGTWATEDAATNDYTVSETNGKEIASTTADSIGESLLMIPQDMKGKTIEIAYDLVYTNPAQTISNTKAIVLDDKSNWVMNQQYTYTLTISLETVQLTASVGQFGANIDL” here?
**A.** not soluble

**Q.** For “PVNQVQSSVSWPQNGSLNSVSAPLMSYTPISFDAKIPVASVDKLRKDQDLILGTLPANSEDAGARGLFVRANDDGLQITSHGELVLDLSKRELAQLPADATIAISATEDETTAGIEGDDSTTETVERDVRPIIMGIYTELESNAAADLLNAGLNAHVEINSRFTSSPTLAKYAS”, which “soluble on expression in E. coli” value is on record?
**A.** soluble

**Q.** For “MAHHHHHHMGGHGGLNILPQKKWNVYRKDAQYKVHYDEHKIIKEEKDKEIKRKKDEFESTISTLKKNMTKNEDSDNNYNNFYDENGEKKTTTNYCNDHINLFIDEEKELTAKQKKHEEFLIKKGHYIYYDKNFNTQHNSIYDKNKNAQIISDFNKMKLCERDWFLNKKNKNEKTKDNGANFFHIQKDNISEEHNKTENINSDLSLYCNTNNYITHDKKKEKKQMHYHIKKIIKYKQEKDKEKKRKRQGKEKKKPK”, which “soluble on expression in E. coli” value is on record?
**A.** not soluble

**Q.** For “MNQQTYAFTLEMEVRDYECDMQGIVNNSVYQNYLEHARHVYLKTVGIDFKEFTERGINLVVVRAELDYKLPLQSGDRFRVGLNMVRQSPLRFAFYQDILRLPDMKPAVKARIIGTALNGRGRPEIPAELEALMQPGELEHHHHHH”, which “soluble on expression in E. coli” value is on record?
**A.** soluble

**Q.** For “MGSDKIHHHHHHMRSSSKCSSVRFQFFVVELFMTTTQSAGEITGNVLFYNAPEPLNREQHAKLALVHKDKPYAFAAAGTAVPLTVSEFAPAALTFPVIFAGDDRVPLAVMGLNQQENLFIGADGSIEANVYIPAYIRRYPFVLANDDTQDRLIVCIDRGSDLLSEQGQTPLFDAKGEPTEYTQNCIKFCDDFEVERRRTDSFVQILKDNDLFELKKATFQPTDEVGAPVGEPVTVAEYFGVSEEKLNGLSAEKLKELQENGALAQIYAHLVSLLGWDRLINKTMMKQAEAANLN”, which “soluble on expression in E. coli” value is on record?
**A.** not soluble

**Q.** With “GMLTGKHVVIIGGDARQLEIIRKLSTFDAKISLVGFDQLDDGFIGVTKMRIDEVDWNTVDAILLPISGTNEAGKVDTIFSNESIVLTEEMIEKTPNHCVVYSGISNTYLNQCMKKTNRTLVKLMERDDIAIYNSIPTAEGTIMMAIQHTDFTIHGANVAVLGLGRVGMSVARKFAALGAKVKVGARESDLLARIAEMGMEPFHISKAAQELRDVDVCINTIPALVVTANVLAEMPSHTFVIDLASKPGGTDFRYAEKRGIKALLVPGLPGIVAPKTAGRILADVLVKLLAEPS” as the sequence, how does the “soluble on expression in E. coli” value read?
**A.** soluble

**Q.** For “GSRIAKRTAINKTKKADVKAIADAWQINGEKELELLQQIAQKPGALRILNHSLRLAAMTAHGKGERVNEDYLRQAFRELDLDVDISTLLRN”, which “soluble on expression in E. coli” value is on record?
**A.** soluble

**Q.** Which “soluble on expression in E. coli” value does the source give for “MGSDKIHHHHHHMSEQVRSLSEFTAEVEAMTAAMMTEEPQEIASMRCGEMENTAGSYGQYFGTWDIAHGMLRDYSMYTLYPITALAEDAEMDLTSLSKTVDALDPAYSNYLRYSGFPRMGKLAVELRGLIRASTSRSDIVAALRAFTAYTNRLQAWSFHYFPWGLGKHFRYDEARLQDAPLPVADLGATRACITCGQRIRISWEPLGITVNATLASEENPELCADVVAALPFTVIQDHAVVTGESMYAWTPVLSTAPIHLRERICDAPVGRLRYSQSTGQKFIVQYGPTTEDLSQPVLGEIDAADAGKLEQVGRAVWDSTFDNKQLIWMTVELA” here?
**A.** not soluble

**Q.** With “MNESGFLIDTHAHIDGHDFAADFDAMLSRAWEAGLSHIVTVGADLESSRAAVALAGRHERIWCAVGIHPHDAGRVTDRCYDEIRTLAQGNPKVAAIGEIGLDFFRDRSPRDEQEQVFRRFIRLARELALPIVVHDRDAHERVMAILREEKARDVGGVLHCFSGDLAMARECVDMGFLISIPGTVTYPSNEALREVVRGVKIEHLLVETDCPYLTPVPHRGKRNEPAYVRLTAEKVAELKGLSLEDVGRITSLNARRLFGIGESDQAARIAYRIRNSLYLNITNRCSNRCSFCAKFDDYTVKGHHLRLDHEPDSAEVLAAVGEPGPVDEIVFCGFGEPMLRLDLIVEVARELKKRGFRIRINTDGQANLVHGRNVLPELQGLVDCISVSLNAADADTYARLCNTPFGTNGFNGICRFLEEARLYIPTVVATAVTVPGIDVAAVRALAESLGVEFREREFAEVGLEHHHHHH” as the sequence, how does the “soluble on expression in E. coli” value read?
**A.** soluble

**Q.** For “MGHHHHHHHHHHSSGHIDDDDKHMTSLLSQFVSKTDFESYEDFQENFKILVPENFNFAYDVVDVYARDSPEKLAMIWCDDYGNEKIFTFKDLKYYSDKAANFFVKHGIGKGDYVMLTLKSRYDFWYCMLGLHKLGAIAVPATHMLKTRDIVYRIEKAGLKMIVCIAEDDVPEQVDEAHAECGDIPLKKAKVGGDVLEGWIDFRKELEESSPIFERPTGEVSTKNEDICLVYFSSGTAGFPKMVEHDNTYPLGHILTAKYWQNVEDDGLHYTVADSGWGKCVWGKLYGQWIAGCAVFVYDYDRFEAKNMLEKASKYGVTTFCAPPTIYRFLIKEDLSHYNFSTLKYAVVAGEPLNPEVFNRFLEFTGIKLMEGFGQTETVVTIATFPWMEPKPGSIGKPTPGYKIELMDRDGRLCEVGEEGEIVINTMEGKPVGLFVHYGKDPERTEETWHDGYYHTGDMAWMDEDGYLWFVGRADDIIKTSGYKVGPFEVESALIQHPAVLECAITGVPDPVRGQVIKATIVLTKDYTPSDSLKNELQDHVKNVTAPYKYPRIIEFVPELPKTISGKIRRVEIRDKDQSQ”, which “soluble on expression in E. coli” value is on record?
**A.** soluble

**Q.** Which “soluble on expression in E. coli” value does the source give for “MDNPCPTCGQELEWTGQYHCSACTVDYCKVGFCPECGSELEKLQACGAANYFCNQCNELKSKSKIRFVFQPLNGNSQLEHHHHHH” here?
**A.** soluble

**Q.** Which “soluble on expression in E. coli” value does the source give for “MAIALVTGGSRGIGRATALLLAQEGYTVAVNYQQNLHAAQEVMNLITQAGGKAFVLQADISDENQVVAMFTAIDQHDEPLAALVNNAGILFTQCTVENLTAERINRVLSTNVTGYFLCCREAVKRMALKNGGSGGAIVNVSSVASRLGSPGEYVDYAASKGAIDTLTTGLSLEVAAQGIRVNCVRPGFIYTEMHASGGEPGRVDRVKSNIPMQRGGQAEEVAQAIVWLLSDKASYVTGSFIDLAGGK” here?
**A.** not soluble

**Q.** For “MGSDKIHHHHHHMNITIVGAGATGGYFGARLAASGLNVTFLVREKRAAQLREKGLVIKSVVEDLTLEAPQIAINAEDIPACDLVLLGLKNYQLAASLPQLKVLVNRGAKILPFLNGVEHFEILAKELGQENVLGGVCKIISTLDSEGTIHHTSKVHQIIFGELEPSGKEFCLRLEQAMAKANFKVKYTENILNEIWSKYAFITVFSGVTSAGDLTTDQICAHEATVKVYRRSLEEMKSLADAYGAALSEDFVEQNVEGLPKYAKGSTSSMHQDMRKGLLLEVESLQGAAIRLAGRKNMELPTIETLYGLIKPYEMGSIG”, which “soluble on expression in E. coli” value is on record?
**A.** not soluble

**Q.** For “MGITREELRALVREVVREAVGSLNSSPAQASNQASKPAPPAPPPRATVADQMGLEPTGPRAVEGRNRTETVRLTDDKDLDTFVRKLLRLFESPKTRADLKAGRLRFRLAPGSGAAMANGQAQVTHRIDSGAVTERHIADLAGGTLVLGPRAVLTPLAREKARTLGIVIEKERR”, which “soluble on expression in E. coli” value is on record?
**A.** not soluble

**Q.** Which “soluble on expression in E. coli” value does the source give for “MLQSTLLRKSIFYSLAHRRHVASVPLKDVFCDPENPKILQFGDISMAHHRIQNGIVRTDCRKSRCLSKLFDMNIYLKMEVNQDTGSFKERGARYALQNLPEEKKKAGVYAASAGNHALALSLHGKQLGVEVNVVMPKIAPLMKINRCQDLGANILVQGEDIAESREIALRMAHDSNGTYINGYDHYDILAGAGTTGIEILEQIQMPDAILVPVGGGGLVAGVATAVKALSPTTEVIGVVSETCQAIVKSLQAGHPVYTPTRPTLADGLAVPNAGVNAFASMIGKVDRVISVPENDIAVAILRLIENEKVVCEGAGAIGIGAILSGKLNHLKGKTVVSILSGGNIDSTSLGRCIERGLAYDHRVIRLSVIIPDKPGGLSKLTGLVGELSGNVRDLYLERAFMRNDMSSQRVKMVIEVRGEEHEMQLKQKFQEVYDPSNCQFKNNRLPRL” here?
**A.** not soluble

**Q.** For “MGSDKIHHHHHHMNINISGKRVLVTASTEGIGRGIAEAFLREGCNVVISSRNKDKIEKAILEMRKIGPSVWGFPADLTDFKSLEELVGYALKIMNGIDILVVNSGNPPKEPSYFFENTMEDWEYATKLYLLSAIKLTNLVYQYMKAQRWGRIFFLSSWTIKEPQRIFSLADITRAPLIQMAKLLSKELGEYNVNVNVILMGSFETEGAKRSLKKYAEKVGQPLDVIWKREVISQIPIGRTGDIKNELGSLLVFLSSDYAGYINGTSILIDGGMSRAI”, which “soluble on expression in E. coli” value is on record?
**A.** not soluble

**Q.** For “MPSLSKEAALVHDALVARGLETPLRPPMDELDNETRKSLIAGHMTEIMQLLNLDLSDDSLMETPHRIAKMYVDEIFAGLDYANFPKITLIENKMKVDEMVTVRDITLTSTCEHHFVTIDGKATVAYIPKDSVIGLSKINRIVQFFAQRPQVQERLTQQILTALQTLLGTNNVAVSIDAVHYCVKARGIRDATSATTTTSLGGLFKSSQNTRQEFLRAVRHHP”, which “soluble on expression in E. coli” value is on record?
**A.** not soluble

**Q.** For “MDLDKLVHQPTRLELFAYLYRHGESSFGDLTDELDLTEGNLSSHLQRMEDADAVEVRKEFVDKRPHTTAVLTEDGEAMFEDHVQTLQGLIDGLELEHHHHHH”, which “soluble on expression in E. coli” value is on record?
**A.** not soluble

**Q.** For “MWYHRLSHLHSRLQDLLKGGVIYPALPQPNFKSLLPLAVHWHHTASKSLTCAWQQHEDHFELKYANTVMRFDYVWLRDHCRSASCYNSKTHQRSLDTASVDLCIKPKTIRLDETTLFFTWPDGHVTKYDLNWLVKNSYEGQKQKVIQPRILWNAEIYQQAQVPSVDCQSFLETNEGLKKFLQNFLLYGIAFVENVPPTQEHTEKLAERISLIRETIYGRMWYFTSDFSRGDTAYTKLALDRHTDTTYFQEPCGIQVFHCLKHEGTGGRTLLVDGFYAAEQVLQKAPEEFELLSKVPLKHEYIEDVGECHNHMIGIGPVLNIYPWNKELYLIRYNNYDRAVINTVPYDVVHRWYTAHRTLTIELRRPENEFWVKLKPGRVLFIDNWRVLHGRECFTGYRQLCGCYLTRDDVLNTARLLGLQA”, which “soluble on expression in E. coli” value is on record?
**A.** not soluble

**Q.** With “MGSDKIHHHHHHMSSGITPPLIAGNLALDFINTQFGVGADRYECLNDDSSVVEWLHQAGVLNDTLAAPPAGLVERARELREDMQTLIVSAREGRGADPAIVNQVLERGHPIERLEWVPAYAAFQKQTYRRDLTSESLLQPVAQALVELLTKEDLHLVKECQAPDCVLLFHDQTKSHRRRWCSMASCGNRMKAAAHRARKSAT” as the sequence, how does the “soluble on expression in E. coli” value read?
**A.** not soluble

**Q.** With “NIVLTQSPASLAVSLGQRATISCRANESVYSYGDSFMHWYQQKPGQPPKLLIYLASNLASGVPARFSGSGSRTDFTLTIDPVETDDAATYYCQQNNEDPWTFGGGTKLEIKRGDAAPTVSIFPPSSEQLTSGGASVVCFLNNFYPKDANVAWKIDGSERQNGVLNSWTDQDSKDSTYSMSSTLTLTKDEYERHNSYTCEATHKTSTSPIVKSFNR” as the sequence, how does the “soluble on expression in E. coli” value read?
**A.** soluble

**Q.** For “GGSVLAERAGIDPTAILRDFDRGRTSTLPDGRTLREWDIVAVDKDFEIAPGIIFKGWSYNGRIPGPTLWAREGDALRIHFTNAGAHPHTIHFHGVHRATMDGTPGIGAGSIAPGQSFTYEFDATPFGTHLYHCHQSPLAPHIAKGLYGGFIVEPKEGRPPADDEMVMVMNGYNTDGGDDNEFYSVNGLPFHFMDFPVKVKQHELVRIHLINVLEYDPINSFHIHGNFFHYYPTGTMLTPSEYTDTISQVQGQRGILELRFPYPGKFMFHAHKTEFAELGWMGFFEVSA”, which “soluble on expression in E. coli” value is on record?
**A.** soluble
